Measurements taken from patent US20240252686A1 (SKYLINE THERAPEUTICS, published 2024).
Values belong to the binder of their own block, whether it stands above or below them.

Key:
[1] = biological target: T1, VEGFA-165 (R&D systems 293-VE/CF) (human, UniProt P15692-4 27-191); experiment: competitive ELISA as in Example 7: inhibition of VEGFR2/KDR Fc binding to coated VEGFA-165
T1 construct: Coated on ELISA plates or added in solution to reporter cells; also called human VEGF; human VEGFA
Description: After removing the blocker, the detection antibody (rabbit anti-human FC HRP, Thermo) diluted 1:5000 with the blocking buffer, and added 50 μl/well incubated at RT for 1h with 250 rpm gentle shaking. After washing the ELISA plate with 1×TBST for 3 times, the TMB substrate was added the plate (50 μl/well); after the incubation at RT for 5-10 min, 2M H₂SO₄ was added to stop the TMB reaction. OD450 and OD525 of the ELISA plate were detected.
The mono-valent and bi-valent Nb24s in the supernatants were quantified by western blot as described in Example 2, and diluted to a series of concentrations.

[2] = biological target: T1, VEGFA-165 (R&D systems 293-VE/CF); experiment: ELISA as in Example 5, VEGFA-165 coated, anti-HA detection
Description: (§1) After removing the blocker, the primary antibody (rabbit anti-HA, Thermo, PA1-985) was diluted (1:5000) with the blocking buffer (StartingBlock™ T20 (TBS) Blocking Buffer, Catalog number: 37543 of Thermo Fisher Scientific), and added to ELISA plate (50 μl/well), followed by the incubation at RT for 1h with 250 rpm gentle shaking. After washing with 1×TBST buffer for 3 times, the secondary antibody (Goat anti-rabbit-HRP, Invitrogen, 3146) was diluted (1:5000) with the blocking buffer, and added to the ELISA plate (50 μl/well), followed by the incubation at RT for 1h with gentle shaking. After washing the ELISA plate with 1×TBST for 3 times, the TMB substrate (Thermo Scientific, REF34028) was added the plate (50 μl/well); after the incubation at RT for 5-10 min, 2M H₂SO₄ was added to stop the TMB reaction. OD450 and OD525 of the ELISA plate were detected.

[3] = biological target: T1, VEGFA-165 (R&D systems 293-VE/CF); experiment: ELISA, VEGFA-165 coated, supernatant, anti-HA detection
Description: as §1

T1 sequence (P15692 other isoform, or with tags, fused parts or gaps limits assumed): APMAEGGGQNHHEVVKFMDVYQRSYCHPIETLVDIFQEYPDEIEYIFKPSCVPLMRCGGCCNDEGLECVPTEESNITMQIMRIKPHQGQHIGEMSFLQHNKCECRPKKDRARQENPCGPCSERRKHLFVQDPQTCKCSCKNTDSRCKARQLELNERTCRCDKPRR

B1: bi-valent Nb24, product expressed by pGCB108-ITR130-AMDF1Nb24-5-(G4S)2-Nb24-7-HA (VHH)
chain: EVQLQESGGGLVQPGGSLRLSCTASGFTFDDPDVGWFRQAPGNECELVSTISKDGSTYYTDSVKGRFTISRDYAKNTVYLQMNSLRAEDTAVYYCAADSNPIAPIRTCLGWYNYWGQGTLVTVSSGGGGSGGGGSEVQLQESGGGLVQPGGSLRLSCTASGFTFDDPDVGWFRQAPGNECELVSTISKDGSTYYTDSVKGRFTISRDYAKNTVYLQMNSLRAEDTAVYYCAADSNPIAPIRTCLGWYNYWGQGTLVTVSSYPYDVPDYA
notes: also called 24-5-G4S2-24-7
IC50 [1]: 25.6 nM
fold better IC50 than mono-valent Nb24 [1]: 5 fold

B2: bi-valent Nb24, product expressed by pGCB108-ITR130-AMDF1Nb24-5-(G4S)2-Nb24-5-HA (VHH)
chain: B1 chain
notes: Two copies of Nb24 in a single polypeptide; supernatant of transfected Expi293 cells; also called 24-5-G4S2-24-5
EC50 [2]: 376 nM

B6: bi-valent Nb24, product expressed by pGCB108-ITR130-AMDF1Nb24-5-(G4S)4-Nb24-5-HA (VHH)
chain: EVQLQESGGGLVQPGGSLRLSCTASGFTFDDPDVGWFRQAPGNECELVSTISKDGSTYYTDSVKGRFTISRDYAKNTVYLQMNSLRAEDTAVYYCAADSNPIAPIRTCLGWYNYWGQGTLVTVSSGGGGSGGGGSGGGGSGGGGSEVQLQESGGGLVQPGGSLRLSCTASGFTFDDPDVGWFRQAPGNECELVSTISKDGSTYYTDSVKGRFTISRDYAKNTVYLQMNSLRAEDTAVYYCAADSNPIAPIRTCLGWYNYWGQGTLVTVSSYPYDVPDYA
notes: Two copies of Nb24 in a single polypeptide; supernatant of transfected Expi293 cells; also called 24-5-G4S4-24-5
EC50 [2]: 464 nM

B7: mono-valent Nb24 with HA tag, product expressed by pGCB108-ITR130-AMDF1huNb24-5-hGHpA (VHH)
VHH: EVQLQESGGGLVQPGGSLRLSCTASGFTFDDPDVGWFRQAPGNECELVSTISKDGSTYYTDSVKGRFTISRDYAKNTVYLQMNSLRAEDTAVYYCAADSNPIAPIRTCLGWYNYWGQGTLVTVSS
notes: Used as supernatant of transfected Expi293 cells, detected by anti-HA; The junction between Nb24 and the HA tag is not spelled out; also called HuNb24-5-HA; Nb24-5-HA
IC50 [1]: 132 nM

The remaining lines, values ahead:

EC50 [2]: 400 nM
B3: bi-valent Nb24, product expressed by pGCB108-ITR130-AMDF1Nb24-5-(G4S)1-Nb24-5-HA (VHH)
chain: EVQLQESGGGLVQPGGSLRLSCTASGFTFDDPDVGWFRQAPGNECELVSTISKDGSTYYTDSVKGRFTISRDYAKNTVYLQMNSLRAEDTAVYYCAADSNPIAPIRTCLGWYNYWGQGTLVTVSSGGGGSEVQLQESGGGLVQPGGSLRLSCTASGFTFDDPDVGWFRQAPGNECELVSTISKDGSTYYTDSVKGRFTISRDYAKNTVYLQMNSLRAEDTAVYYCAADSNPIAPIRTCLGWYNYWGQGTLVTVSSYPYDVPDYA
notes: Two copies of Nb24 in a single polypeptide; supernatant of transfected Expi293 cells; also called 24-5-G4S1-24-5

binding result [3]: binds
B4: Beovu-scFv with HA tag, product expressed by pGCB108-ITR130-AMDF1-Beovu-scFv (scFv)
scFv: EIVMTQSPSTLSASVGDRVIITCQASEIIHSWLAWYQQKPGKAPKLLIYLASTLASGVPSRFSGSGSGAEFTLTISSLQPDDFATYYCQNVYLASTNGANFGQGTKLTVLGGGGGSGGGGSGGGGSGGGGSEVQLVESGGGLVQPGGSLRLSCTASGFSLTDYYYMTWVRQAPGKGLEWVGFIDPDDDPYYATWAKGRFTISRDNSKNTLYLQMNSLRAEDTAVYYCAGGDHNSGWGLDIWGQGTLVTVSSYPYDVPDYA
notes: Benchmark anti-VEGF scFv; supernatant of transfected Expi293 cells; also called Beovu-scFv-HA; F1F3-HA

EC50 [2]: 346 nM
B5: bi-valent Nb24, product expressed by pGCB108-ITR130-AMDF1Nb24-5-(G4S)3-Nb24-5-HA (VHH)
chain: EVQLQESGGGLVQPGGSLRLSCTASGFTFDDPDVGWFRQAPGNECELVSTISKDGSTYYTDSVKGRFTISRDYAKNTVYLQMNSLRAEDTAVYYCAADSNPIAPIRTCLGWYNYWGQGTLVTVSSGGGGSGGGGSGGGGSEVQLQESGGGLVQPGGSLRLSCTASGFTFDDPDVGWFRQAPGNECELVSTISKDGSTYYTDSVKGRFTISRDYAKNTVYLQMNSLRAEDTAVYYCAADSNPIAPIRTCLGWYNYWGQGTLVTVSSYPYDVPDYA
notes: Two copies of Nb24 in a single polypeptide; supernatant of transfected Expi293 cells; also called 24-5-G4S3-24-5
